The record followed here is US20110256153A1 (IMMUNOGEN, published 2011).

Assay [1] has as its target T1, human CD37 (human, UniProt P11049 1-278).
T1 sequence: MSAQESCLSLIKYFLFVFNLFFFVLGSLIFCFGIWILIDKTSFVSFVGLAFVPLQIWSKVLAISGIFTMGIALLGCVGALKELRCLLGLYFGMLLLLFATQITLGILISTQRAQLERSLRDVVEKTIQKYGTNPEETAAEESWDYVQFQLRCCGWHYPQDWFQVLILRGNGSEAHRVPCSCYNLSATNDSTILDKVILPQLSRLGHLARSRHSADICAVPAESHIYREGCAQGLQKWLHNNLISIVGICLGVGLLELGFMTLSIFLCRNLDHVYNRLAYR
As to the kind of experiment: cell-based or functional assay.

Assay [2] concerns the target T1, human CD37. In words: flow cytometry titration on BJAB cells (FIG. 20A); apparent Kd.
For assay [3], the target named is T2, macaque CD37 (macaque, UniProt P11049 1-277 (human entry)).
T2 construct: Expressed on 300-19 cells transfected with pSRa-CD37mac (300-19/CD37mac cells); also called macaca CD37; macaque derived CD37 antigen
T2 chain: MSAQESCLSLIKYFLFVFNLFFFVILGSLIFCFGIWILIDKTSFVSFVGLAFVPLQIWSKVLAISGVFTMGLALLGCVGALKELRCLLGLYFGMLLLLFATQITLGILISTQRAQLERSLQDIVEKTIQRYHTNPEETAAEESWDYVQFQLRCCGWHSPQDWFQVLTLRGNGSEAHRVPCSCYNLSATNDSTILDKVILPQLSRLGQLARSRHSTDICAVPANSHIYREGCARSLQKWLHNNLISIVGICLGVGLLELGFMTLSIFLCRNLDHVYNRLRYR
As to the kind of experiment: flow cytometry, 300-19/CD37mac cells. As for the experimental part: (§1) Binding specificity was tested by flow cytometry using purified antibodies. […] All murine antibodies were incubated for 3 h with either CD37-expressing 300-19 cells or the non-transfected 300-19 cells (1×10⁵ cells per sample) in 100 μL FACS buffer (RPMI-1640 medium supplemented with 2% normal goat serum). Then, the cells were pelleted, washed, and incubated for 1 h with 100 μL of FITC-conjugated goat anti-mouse IgG-antibody (Jackson Laboratory, 6 μg/mL in FACS buffer). The cells were pelleted again, washed with FACS buffer and resuspended in 200 μL of PBS containing 1% formaldehyde. Samples were acquired using a FACSCalibur flow cytometer with the HTS multiwell sampler or a FACS array flow cytometer and analyzed using CellQuest Pro (all from BD Biosciences, San Diego, US).
The murine antibodies muCD37-3, muCD37-12, muCD37-38, […], muCD37-51, muCD37-56 and muCD37-57 were assayed for their ability to bind to 300-19/CD37mac cells expressing macaque CD37. Flow cytometry binding assays were carried out using secondary FITC-conjugated goat-anti-murine or goat-anti-human antibodies, analyzed as described in Example 2. Binding was compared to the previously described anti-CD37 antibody WR17 and the anti-CD37 SMIP TRU-016. […] In contrast, muCD37-3, muCD37-12, the previously described anti-CD37 antibody WR17 and the anti-CD37 SMIP TRU-016 are unable to bind the macaque derived CD37 antigen.
For orientation: In flow cytometry, cells or beads pass a laser one at a time.

The target of assay [4] is T1, human CD37. In words: flow cytometry titration on BJAB cells; apparent Kd. Here is the method:
as §1
The humanized antibodies huCD37-38, huCD37-50, huCD37-51, huCD37-56 and chCD37-57 were assayed for their binding affinity to BJAB cells in comparison to their murine counterparts. Flow cytometry binding assays were carried out using secondary FITC-conjugated goat-anti-murine and -anti-human antibodies, analyzed as described in Example 2 and dose-response curves were generated by non-linear regression for each antibody. The value for the apparent dissociation constant (Kd) of each antibody was calculated using GraphPad Prism v4 (GraphPad software, San Diego, Calif.).

Assay [5] concerns the target T1, human CD37. In words: flow cytometry titration; apparent Kd; cells not named.
Assay [6] deals with T1, human CD37. As to the kind of experiment: flow cytometry titration on BJAB cells (FIG. 20B); apparent Kd.
The target in assay [7] is T2, macaque CD37. In words: flow cytometry titration on 300-19/CD37mac cells; apparent Kd. As for the experimental part:
as §1
Flow cytometry binding assays were carried out using secondary FITC-conjugated goat-anti-human antibodies, analyzed as described in Example 2 and dose-response curves were generated by non-linear regression for each antibody. The value for the apparent dissociation constant (Kd) of each antibody was calculated using GraphPad Prism v4 (GraphPad software, San Diego, Calif.).

For assay [8], the target named is T1, human CD37. In words: flow cytometry titration on Ramos cells; apparent Kd. Here is the method:
as §1
The chimeric antibodies chCD37-3 and chCD37-12 were assayed for their binding affinity to Ramos cells in comparison to their murine counterparts. Flow cytometry binding assays using Ramos cells and muCD37-3, chCD37-3, muCD37-12 and chCD37-12 antibodies were carried out and analyzed as described in Example 2 using secondary FITC-conjugated goat-anti-murine and -anti-human antibodies. FIG. 9A depicts the dose-response curves generated by non-linear regression for each antibody. The value for the apparent dissociation constant (Kd) of each antibody was calculated using GraphPad Prism v4 (GraphPad software, San Diego, Calif.).

The target of assay [9] is T1, human CD37. As to the kind of experiment: competition flow cytometry on BJAB cells; competitor PE-labeled muCD37-3 (1 nM). Here is the method:
Flow cytometry binding assays using BJAB cells and a competitive binding format were used to evaluate binding affinity of chimeric and humanized versions of CD37-3. BJAB cells were incubated with a 1 nM concentration of PE-labeled muCD37-3 antibody and competition was measured by adding varying amounts of muCD37-3, chCD37-3, huCD37-3v1.0 or huCD37-3v1.01. The samples were incubated for 3 hrs at 4° C. Then, the cells were pelleted, washed with FACS buffer and resuspended in 200 μL of PBS containing 1% formaldehyde. Samples were acquired using a FACSCalibur flow cytometer with the HTS multiwell sampler and analyzed using CellQuest Pro (all from BD Biosciences, San Diego, US). The resulting mean PE fluorescence was plotted against the amount of competing antibody used in a semi-log plot. FIG. 9B depicts the dose-response curves generated by non-linear regression for each antibody. The value for the apparent dissociation constant (Kd) of each antibody was calculated using GraphPad Prism v4 (GraphPad software, San Diego, Calif.).

B1: huCD37-3-SPP-DM1 (antibody, human IgG1, kappa, V domains shown)
VH: QVQVQESGPGLVAPSQTLSITCTVSGFSLTTSGVSWVRQPPGKGLEWLGVIWGDGSTNYHPSLKSRLSIKKDHSKSQVFLKLNSLTAADTATYYCAKGGYSLAHWGQGTLVTVSS
VL: DIQMTQSPSSLSVSVGERVTITCRASENIRSNLAWYQQKPGKSPKLLVNVATNLADGVPSRFSGSGSGTDYSLKINSLQPEDFGTYYCQHYWGTTWTFGQGTKLEIKR
modifications: DM1 attached through SPP linker; attachment residues not stated; 3.5-4 DM1 per antibody
notes: heavy chain version as for huCD37-3, see its note
For the molecule B1, in the assay with human CD37 [1], the “EC50 of in vitro cytotoxicity, BJAB cells” value was found to be 0.11 nM; the “EC50 of in vitro cytotoxicity, Daudi cells” value amounted to 0.12 nM; the “EC50 of in vitro cytotoxicity, Granta-519 cells” value turned out to be 0.13 nM. Besides, the Kd in the assay with human CD37 [2] stood at 0.56 nM.

B2: huCD37-3-sulfo-mal-DM4 (antibody, human IgG1, kappa, V domains shown)
VH: B1 VH
VL: B1 VL
modifications: DM4 attached through 3-sulfo-mal linker; attachment residues not stated; 3.5-4 DM4 per antibody
notes: as for B1
Turning to B2, in the assay with human CD37 [1], the “EC50 of in vitro cytotoxicity, BJAB cells” value came out at 0.11 nM; the “EC50 of in vitro cytotoxicity, Daudi cells” value worked out at 0.14 nM; the “EC50 of in vitro cytotoxicity, Granta-519 cells” value was 0.088 nM. In addition, in the assay with human CD37 [2], the Kd amounted to 0.89 nM.

B3: huCD37-3 (antibody, human IgG1, kappa, V domains shown)
VH: B1 VH
VL: B1 VL
notes: also called huCD37-3 Ab; huCD37-3 antibody
Turning to B3, the binding result with macaque CD37 [3] is “no binding”. Besides, the Kd with human CD37 [4] turned out to be 0.2 nM; with human CD37 [2] it was 0.26 nM; in the assay with human CD37 [5], 0.28 nM.

B4: huCD37-38-SMCC-DM1 (antibody, human IgG1, kappa, V domains shown)
VH: QVQLQESGPGLVKPSQSLSLTCTVSGYSITSGFGWHWIRQFPGKGLEWMAYILYSGGTDYNPSLKSRISITRDTSKNQFFLRLSSVTAADTATYYCARGYYGYGAWFVYWGQGTLVTVSS
VL: DIVLTQSPASMSASPGERVTMTCSASSSVTYMHWYQQKPGTSPKRWIYDTSKLASGVPARFSGSGSGTSYSLTISSMEAEDAATYYCQQWISNPPTFGGGTKLEIKR
modifications: DM1 attached through SMCC linker; attachment residues and load not stated
notes: SMCC-DM1 conjugate of huCD37-38
Take B4: in the assay with human CD37 [1], the “EC50 of in vitro cytotoxicity, WST-8 assay, Daudi cells” value was 0.098 nM and the “EC50 of in vitro cytotoxicity, WST-8 assay, Granta-519 cells” value came out at 0.074 nM. Moreover, the Kd in the assay with human CD37 [6] came to 1.2 nM.

B5: huCD37-38 (antibody, human IgG1, kappa, V domains shown)
VH: B4 VH
VL: B4 VL
notes: Humanized antibody
Regarding B5, the Kd with macaque CD37 [7] amounted to 1.1 nM; in the assay with human CD37 [4], 0.3 nM; in the assay with human CD37 [6], 1.04 nM.

B6: chCD37-3 (antibody, human IgG1, kappa)
heavy: not shown
light: DIQMTQSPASLSVSVGETVTITCRASENIRSNLAWYQQKQGKSPQLLVNVATNLADGVPSRFSGSGSGTQYSLKINSLQSEDFGTYYCQHYWGTTWTFGGGTKLEIKRTVAAPSVFIFPPSDEQLKSGTASVVCLLNNFYPREAKVQWKVDNALQSGNSQESVTEQDSKDSTYSLSSTLTLSKADYEKHKVYACEVTHQGLSSPVTKSFNRGEC
notes: Chimeric antibody, murine variable regions with human constant regions
The term EC50 denotes the concentration that produces a half-maximal response. The low end stands for a more potent agent, the high end for a less potent agent. B6: the Kd with human CD37 [8] was found to be 0.8 nM. For the same molecule, it took 0.7 nM to reach a half-maximal effect with human CD37 [9] (EC50).
